According to patent US20160151511A1, “PROTEINS AND PROTEIN CONJUGATES WITH INCREASED HYDROPHOBICITY” (priority 2014, published 2016):

How the values were obtained:
GLP-1 receptor = biological target: T1, GLP-1 receptor (Homo sapiens, UniProt P43220); assay: Cell-based GLP-1 receptor assay, intracellular calcium mobilization in CHO-K1/GLP1/Gα15 (FlexStation); conditions: Calcium-4
T1 construct: expressed in transfected cells; host or cells: CHO-K1/GLP1/Gα15
Protocol: The intracellular calcium change was measured by FlexStation. […] A lower EC50 indicates a higher activity.

[1] = biological target: GLP-1 receptor on CHO-K1/GLP1/Gα15 cells (UniProt P43220); assay: cell-based or functional assay
Sequence of GLP-1 receptor on CHO-K1/GLP1/Gα15 cells (P43220 24-463 limits assumed): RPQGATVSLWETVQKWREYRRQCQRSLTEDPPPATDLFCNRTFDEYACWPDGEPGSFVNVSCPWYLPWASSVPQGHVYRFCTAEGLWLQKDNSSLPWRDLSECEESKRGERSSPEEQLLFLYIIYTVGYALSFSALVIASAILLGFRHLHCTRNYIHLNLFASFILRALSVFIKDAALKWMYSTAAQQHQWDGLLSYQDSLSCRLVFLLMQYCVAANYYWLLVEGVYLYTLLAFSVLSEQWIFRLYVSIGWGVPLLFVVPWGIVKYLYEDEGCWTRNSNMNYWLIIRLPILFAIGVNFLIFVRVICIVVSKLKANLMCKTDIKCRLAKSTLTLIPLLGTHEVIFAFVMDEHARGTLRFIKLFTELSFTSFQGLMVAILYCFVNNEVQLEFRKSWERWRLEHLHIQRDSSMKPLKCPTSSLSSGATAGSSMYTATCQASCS

[2] = biological target: T2, GLP-1 receptor (covalently immobilized on the Biacore biosensor surface) (UniProt P43220 24-145, limits assumed); assay: Biacore (SPR), GLP-1 receptor covalently immobilized, peptide injected
T2 construct: also called the receptor

T1 sequence (P43220 24-463, species assumed): as the sequence (P43220 24-463 limits assumed) above

Row | Molecule | EC50 (GLP-1 receptor) [nM] | EC50 of intracellular calcium mobilization (Calcium-4, FlexStation RFU) [1] [nM] | Kd [2] [nM]
1 | 5 kDa-PEG-Cys(37)-GLP-1 (HAEGTFTSDVSSYLEGQAAKEFIAWLVKGRC) | 336 |  | 
2 | HAEGTFTSDVSSYLEGQAAKEFIAWLVKGRC (5 kDa cysteine-reactive maleimide-PEG on the added Cys at position 37, range 27-56; also called 5 kDa-PEG-GLP-1 (Cys analog); C-terminally PEGylated GLP-1) [5 kDa-PEG-Cys(37)-GLP-1] |  | 336 | 1600
